The series concerns MS2 coat protein. Kind of series: apparent KD of MS2 coat protein; designed switch direction (-1 OFF switch, 1 ON switch): -1; higher = weaker reporter binding. The essentials: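 The reported apparent KD is a per-design median over clusters, from curve fits of normalised cluster fluorescence. Protein titrations used SNAP-549-labelled MS2 coat protein, doubled from 0.7 or 1.5 nM to 3 µM, in Tris-HCl pH 7.5 buffer with KCl, MgCl2, BSA, DTT, tRNA and Tween-20, with no input, 200 uM small-molecule ligand, or an oligonucleotide input. The RNA switches were transcribed on Illumina chips by stalled E. coli RNA polymerase.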

[1] abbreviates: input ligand: microRNA oligo, concentration not stated.

As for “CGCUGGUGAGGAUAUGGGUGUGGUUACAUGAGGAUCACCCAUGUGGUGUCGCAUGUGGGUCCAGAAGGCGCGGGUG [-25.2, -23.4 kcal, 17% A] (Eterna round: R97, puzzle: Exclusion 5)”, the “apparent KD of MS2 coat protein” value by setting is: (input ligand: FMN 200 uM) 0.856 µM; (input ligand: none) 0.585 µM.

As for “CGGACACCAGUAGGAUAUGUAGGAUAUGUUGUUGAGGAUCACCCAACAAAUUAAACGACAGAAGGACAGAAGGACUGUUCUCCU [pwkr exNG2 2xFMN 1xF5.2] (Eterna round: R96, puzzle: Exclusion NG 2)”, the “apparent KD of MS2 coat protein” value was determined as 0.0186 µM (input ligand: FMN 200 uM), 0.0145 µM under setting [1] and 0.0247 µM (input ligand: none).

As for “CGGAGUUAGGAGGAUAUGACGAACGCACGUCGUUCAGAAGGCCUAACAUGAGGAUCACCCAUGUGCUUAACACG [Eternabot (L2) Solution 59] (Eterna round: R97, puzzle: Exclusion 6)”, the “apparent KD of MS2 coat protein” value reads like this: (input ligand: FMN 200 uM) 0.0487 µM; (input ligand: none) 0.0357 µM.

Consider “CGGAUGUUAGGAUAUUAGUAGUAGUCAGAAAAGACUAUUACUGAGAAGGAACAUGAGGAUCACCCAUGUUUCCG [Mat - Exclusion 4 - Eli Mod - D44] (Eterna round: R97, puzzle: Exclusion 4)”, for which the “apparent KD of MS2 coat protein” value was found to be 0.017 µM (input ligand: FMN 200 uM) and 0.0154 µM (input ligand: none).

In the case of “CGGCGACAUGAGGAUCACCCAUGUGAGGAUAUGACGGGAAAAGCGUGAGCAGUUUGUAUCAGAAGGCGGGUAGG [salish99_ex1_r4_080] (Eterna round: R97, puzzle: Exclusion 1)”, the “apparent KD of MS2 coat protein” value runs as follows: (input ligand: FMN 200 uM) 0.0372 µM; (input ligand: none) 0.0336 µM.

For the sequence “CGGCGGGUCGCGCUGGUCCACAUGAGGAUCACCCAUGUUCCGGCACGCUGAAGGCACACGCUUUUUGCUCGUCUUAU [Sensor V1 S1] (Eterna round: R97, puzzle: Sensor, turn-off variant 1)”, the “apparent KD of MS2 coat protein” value was determined as 0.0322 µM (input ligand: FMN 200 uM) and 0.035 µM (input ligand: none).

In the case of “CGGGCCGGCCUUCCGGCCGGCCCGACAUGAGGAUCACCCAUGUAGGAUAUCCCGGCUGCCGGCCGGGAGAAGGGCGUGCGUCCU [-50.4, -49.5 kcal, 14% A] (Eterna round: R96, puzzle: Exclusion NG 3)”, the “apparent KD of MS2 coat protein” value (input ligand: FMN 200 uM) was determined as 0.101 µM, the “apparent KD of MS2 coat protein” value under setting [1] was 0.0536 µM and the “apparent KD of MS2 coat protein” value (input ligand: none) was 0.0916 µM.

For the sequence “CGGUCACUAGGAUAUCAGGAAAACUACAUGAGGAUCACCCAUGUACUGAGUGUAGGAGACUGAGAAGGAGUUCUUA [EX5 C.4] (Eterna round: R97, puzzle: Exclusion 5)”, the “apparent KD of MS2 coat protein” value by setting is: (input ligand: FMN 200 uM) 0.0315 µM; (input ligand: none) 0.0223 µM.

Turning to “CGGUGACGGGUGAGGAUAUCGUGUUCGAAAGAACGUGAGAAGGCACAUGAGGAUCACCCAUGUGAUCCUCAUCG [Omei Ex4B A31] (Eterna round: R97, puzzle: Brourd's mod of Exclusion 4)”, the “apparent KD of MS2 coat protein” value is, setting by setting: (input ligand: FMN 200 uM) 0.412 µM; (input ligand: none) 0.0561 µM.

In the case of “CGGUGUAAGUCAGGAUAUGAGCGCAACUGACGAUCAGAAGGGACACAUGAGGAUCACCCAUGUGAUUUCUCAAUAUUAUACAUC [Prohibition 90 - Jieux - Exclusion NG 1] (Eterna round: R96, puzzle: Exclusion NG 1)”, the “apparent KD of MS2 coat protein” value (input ligand: FMN 200 uM) stood at 0.0307 µM, the “apparent KD of MS2 coat protein” value under setting [1] was found to be 0.0144 µM and the “apparent KD of MS2 coat protein” value (input ligand: none) amounted to 0.0231 µM.

“CGGUGUAGAGGAUAUACGUGAAUUUUGUUAUAUAAUAAUUUACAUGAGGAUCACCCAUGUAGAAGGCUAUAGCG [JR_Ex2_Sub084] (Eterna round: R97, puzzle: Exclusion 2)”: the “apparent KD of MS2 coat protein” value is, setting by setting: (input ligand: FMN 200 uM) 0.0234 µM; (input ligand: none) 0.0242 µM.

In the case of “CGGUUGUGAGGAUAUACAUGAGGAUCACCCAUGUCCAUCCUUUCGGUAACGAUAGAACGUAGAAGGCGCACCGU [Eternabot (L2) Solution 55] (Eterna round: R97, puzzle: Exclusion 3)”, the “apparent KD of MS2 coat protein” value amounted to 0.0244 µM (input ligand: FMN 200 uM) and 0.016 µM (input ligand: none).

The record behind these values is the supplement of paper PMC9170038.
